Test [1] has as its target T1, biotinylated human GPIIb/IIIa ectodomain protein (human, UniProt P08514 32-993; P05106 27-718, biotinylated (site not stated)).
T1 construct: extracellular domain; also called purified GPIIb/IIIa
Kind of test: SPR, biotinylated GPIIb/IIIa ectodomain on streptavidin chip, Fab as analyte, 1:1 model.

Test [2] has as its target T2, GPIIb/IIIa (SEQ ID NOs: 23 and 24) (human, UniProt P08514 32-994; P05106 27-716).
T2 construct: also called GPIIb/IIIa complex
Kind of test: Bio-Layer Interferometry (OctetRed), monovalent format, yeast-purified Fab; apparent monovalent affinity.
Experimental: (§1) BLI was performed on the OctetRed94 instrument, manufactured by ForteBio, according to standard procedures.

Test [3] addresses T2, GPIIb/IIIa (SEQ ID NOs: 23 and 24). Kind of test: Bio-Layer Interferometry (OctetRed), monovalent format, yeast-purified Fab; apparent dissociation rate Kdis.
Experimental: as §1
Test [4] addresses T1, biotinylated human GPIIb/IIIa …. Kind of test: SPR, biotinylated GPIIb/IIIa ectodomain on streptavidin chip, fusion protein as analyte, 1:1 model.
Text: (§2) The GPIIb/IIIa ectodomain protein was immobilized on an SPR chip coated with streptavidin (GE Healthcare).
Test [5] has the same target. As to the kind of experiment: surface plasmon resonance, biotinylated GPIIb/IIIa ectodomain on a streptavidin chip, analyte at 6.2 to 500 nM, 1:1 binding model.
Text: as §2

Where a chain is given by its changes, count along the chain named.

T1 sequence (P08514 32-993, chain 1 of 2): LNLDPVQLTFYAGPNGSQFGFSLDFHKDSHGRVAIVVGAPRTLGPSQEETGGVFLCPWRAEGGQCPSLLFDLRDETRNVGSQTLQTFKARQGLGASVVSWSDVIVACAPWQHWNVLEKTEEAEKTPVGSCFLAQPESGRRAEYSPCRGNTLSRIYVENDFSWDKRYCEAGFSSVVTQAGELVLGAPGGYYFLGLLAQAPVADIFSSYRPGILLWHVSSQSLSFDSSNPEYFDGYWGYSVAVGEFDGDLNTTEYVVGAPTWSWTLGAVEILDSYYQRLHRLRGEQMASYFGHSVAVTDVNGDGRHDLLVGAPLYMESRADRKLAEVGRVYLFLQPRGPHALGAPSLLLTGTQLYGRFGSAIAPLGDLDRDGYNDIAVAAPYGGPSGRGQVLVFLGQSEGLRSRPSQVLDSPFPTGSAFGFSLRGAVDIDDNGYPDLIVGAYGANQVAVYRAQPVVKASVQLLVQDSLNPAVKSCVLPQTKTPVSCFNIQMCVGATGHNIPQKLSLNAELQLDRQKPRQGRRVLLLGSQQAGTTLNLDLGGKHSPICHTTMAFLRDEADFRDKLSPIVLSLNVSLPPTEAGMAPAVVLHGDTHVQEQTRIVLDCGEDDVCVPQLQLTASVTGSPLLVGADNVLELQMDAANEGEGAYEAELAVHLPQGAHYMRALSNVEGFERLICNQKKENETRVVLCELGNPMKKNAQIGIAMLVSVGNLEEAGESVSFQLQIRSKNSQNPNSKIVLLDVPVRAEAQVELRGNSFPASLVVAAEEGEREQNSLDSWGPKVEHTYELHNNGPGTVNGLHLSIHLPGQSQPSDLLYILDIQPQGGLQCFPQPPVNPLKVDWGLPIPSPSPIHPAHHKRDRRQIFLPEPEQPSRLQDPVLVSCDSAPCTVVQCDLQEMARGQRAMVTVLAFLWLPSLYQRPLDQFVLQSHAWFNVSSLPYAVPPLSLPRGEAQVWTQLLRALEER
T1 sequence (P05106 27-718, chain 2 of 2): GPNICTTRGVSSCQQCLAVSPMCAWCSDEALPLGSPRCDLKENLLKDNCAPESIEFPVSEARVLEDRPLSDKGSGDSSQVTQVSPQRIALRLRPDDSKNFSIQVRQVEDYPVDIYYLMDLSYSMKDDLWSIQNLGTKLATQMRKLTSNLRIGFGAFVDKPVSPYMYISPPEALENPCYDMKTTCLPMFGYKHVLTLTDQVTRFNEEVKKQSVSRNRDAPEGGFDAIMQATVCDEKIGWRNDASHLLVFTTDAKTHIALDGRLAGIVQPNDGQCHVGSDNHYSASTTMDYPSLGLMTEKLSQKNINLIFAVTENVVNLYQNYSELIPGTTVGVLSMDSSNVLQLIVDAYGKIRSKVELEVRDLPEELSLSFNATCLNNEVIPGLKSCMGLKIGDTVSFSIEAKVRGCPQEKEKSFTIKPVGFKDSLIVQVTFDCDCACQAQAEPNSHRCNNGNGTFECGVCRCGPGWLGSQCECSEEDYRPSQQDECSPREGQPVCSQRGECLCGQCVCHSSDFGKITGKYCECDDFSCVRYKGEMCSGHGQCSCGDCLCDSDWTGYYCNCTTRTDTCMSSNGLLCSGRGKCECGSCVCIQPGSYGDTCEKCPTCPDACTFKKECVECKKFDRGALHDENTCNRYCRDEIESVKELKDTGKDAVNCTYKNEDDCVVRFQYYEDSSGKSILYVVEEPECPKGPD
T2 sequence (P08514 32-994 limits assumed, chain 1 of 2): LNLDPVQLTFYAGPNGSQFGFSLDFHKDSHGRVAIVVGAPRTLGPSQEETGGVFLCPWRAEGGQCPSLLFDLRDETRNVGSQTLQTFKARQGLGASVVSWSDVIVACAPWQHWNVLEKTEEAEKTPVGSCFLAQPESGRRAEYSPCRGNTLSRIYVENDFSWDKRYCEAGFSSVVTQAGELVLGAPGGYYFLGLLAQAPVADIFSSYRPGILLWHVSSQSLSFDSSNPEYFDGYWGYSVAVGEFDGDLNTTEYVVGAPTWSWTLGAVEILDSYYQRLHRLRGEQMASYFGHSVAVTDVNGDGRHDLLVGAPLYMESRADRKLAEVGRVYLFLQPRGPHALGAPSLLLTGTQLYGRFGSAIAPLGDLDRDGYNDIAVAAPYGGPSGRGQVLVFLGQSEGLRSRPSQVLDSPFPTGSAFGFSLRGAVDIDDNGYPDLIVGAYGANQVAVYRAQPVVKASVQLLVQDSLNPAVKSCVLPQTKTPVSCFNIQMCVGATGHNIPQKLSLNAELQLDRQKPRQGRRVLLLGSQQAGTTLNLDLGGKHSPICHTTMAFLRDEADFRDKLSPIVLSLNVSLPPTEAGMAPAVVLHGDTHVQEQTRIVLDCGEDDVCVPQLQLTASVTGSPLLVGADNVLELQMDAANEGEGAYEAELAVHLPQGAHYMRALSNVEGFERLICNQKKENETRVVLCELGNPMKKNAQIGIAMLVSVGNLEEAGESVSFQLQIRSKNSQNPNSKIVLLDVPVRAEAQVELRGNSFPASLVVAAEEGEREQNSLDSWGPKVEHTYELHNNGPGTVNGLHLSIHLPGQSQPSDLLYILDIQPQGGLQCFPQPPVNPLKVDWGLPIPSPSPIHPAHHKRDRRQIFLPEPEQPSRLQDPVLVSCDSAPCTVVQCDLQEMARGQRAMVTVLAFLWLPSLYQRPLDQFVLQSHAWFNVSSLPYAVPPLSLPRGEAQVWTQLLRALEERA
T2 sequence (P05106 27-716 limits assumed, chain 2 of 2): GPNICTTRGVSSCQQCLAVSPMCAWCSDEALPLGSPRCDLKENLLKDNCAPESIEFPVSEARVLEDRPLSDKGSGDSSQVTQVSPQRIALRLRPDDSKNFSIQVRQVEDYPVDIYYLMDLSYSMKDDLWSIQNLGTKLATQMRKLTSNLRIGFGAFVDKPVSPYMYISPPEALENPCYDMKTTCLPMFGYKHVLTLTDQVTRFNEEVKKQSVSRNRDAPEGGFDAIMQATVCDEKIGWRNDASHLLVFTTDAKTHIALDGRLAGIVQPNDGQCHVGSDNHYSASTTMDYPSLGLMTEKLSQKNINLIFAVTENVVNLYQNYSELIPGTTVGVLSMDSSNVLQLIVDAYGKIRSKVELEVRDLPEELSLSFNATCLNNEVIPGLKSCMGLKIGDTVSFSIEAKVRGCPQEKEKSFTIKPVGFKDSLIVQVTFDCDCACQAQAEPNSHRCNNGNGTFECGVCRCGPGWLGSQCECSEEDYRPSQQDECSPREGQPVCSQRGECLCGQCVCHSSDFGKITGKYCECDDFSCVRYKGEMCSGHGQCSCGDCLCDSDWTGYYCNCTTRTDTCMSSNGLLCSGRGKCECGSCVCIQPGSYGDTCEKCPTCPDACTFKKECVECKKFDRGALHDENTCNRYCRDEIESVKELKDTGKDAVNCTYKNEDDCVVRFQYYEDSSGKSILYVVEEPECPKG

B1: mouse Fab (34D10) (Fab, V domains shown)
VH: EVKLVESGGGLVKPGGSLKLSCAASGFTFSAYAMSWVRQTPEKRLEWVASISSGGTTYYPDSVKRRFTISRDNARNILYLQMSSLRSEDTAMYYCTRGGDYGYALDYWGQGTSVTVSS
VL: ENVLTQSPAIMSASLGEKVTMSCRASSSVNYMYWYQQKSDASPKLWIYYTSNLAPGVPARFSGSGSGNSYSLTISSMEGEDAATYYCQQFSSSPWTFGGGTKLEIK
notes: Fab; also called mouse 34D10 Fab
Turning to B1, in test [1], the Kd is 2.8 nM.

B2: humanized 34D10 Fab L0/H2 (Fab, V domains shown)
VH: EVQLVESGGGLVKPGGSLRLSCAASGFTFSAYAMSWVRQAPGKGLVWVASISSGGTTYYPDSVKRQFTISRDNAKNTLYLQMNSLRAEDTAVYYCTRGGDYGYALDYWGQGTLVTVSS
VL: EIVMTQSPATLSVSPGERATLSCRASSSVNYMYWYQQKPGQAPRLLIYYTSNLAPGIPARFSGSGSGTEFTLTISSLQSEDFAVYYCQQFSSSPWTFGQGTKVEIK
notes: Fab; also called VL0/VH2
Regarding B2, the figures for the Kd in test [1] and in test [2] were 2.8 nM and 155 nM, respectively. The off-rate (koff) in test [3] came out at 0.0563 s⁻¹.

B3: humanized 34D10 Fab L1/H3 (Fab, V domains shown)
VH: B2 VH with E6Q, G16E, V46E, Q66R
VL: B2 VL with M4L, I57V
notes: Fab; only variable domains are tied by name; also called VL1/VH3
As for B3, the Kd in test [1] stood at 110 nM.

B4: affinity matured h34D10 Fab VH112/VL0 (Fab, V domains shown)
VH: B2 VH with K43E, S50G
VL: B2 VL
notes: Yeast-purified Fab
For the molecule B4, the Kd in test [2] was 160 nM. Besides, in test [3], the koff was 0.0352 s⁻¹.

B5: affinity matured h34D10 Fab VH105/VL0 (Fab, V domains shown)
VH: B2 VH with G102S
VL: B2 VL
notes: Yeast-purified Fab
In the case of B5, in test [2], the Kd is 42 nM. Also, in test [3], the koff was found to be 0.0114 s⁻¹.

B6: affinity matured h34D10 Fab VH102/VL0 (Fab, V domains shown)
VH: B2 VH with G102S, S118F
VL: B2 VL
notes: Yeast-purified Fab
Regarding B6, in test [2], the Kd was found to be 36 nM. Also, the koff in test [3] came out at 0.00977 s⁻¹.

B7: affinity matured h34D10 Fab VH110/VL0 (Fab, V domains shown)
VH: B2 VH with S30N
VL: B2 VL
notes: Yeast-purified Fab
As for B7, the Kd in test [2] turned out to be 130 nM. The koff in test [3] was 0.0337 s⁻¹.

B8: affinity matured h34D10 Fab VH114/VL0 (Fab, V domains shown)
VH: B2 VH with V2M
VL: B2 VL
notes: Yeast-purified Fab
B8: in test [2], the Kd worked out at 130 nM. The koff in test [3] turned out to be 0.0393 s⁻¹.

B9: affinity matured h34D10 Fab VH106/VL0 (Fab, V domains shown)
VH: B2 VH with S7C, G102S
VL: B2 VL
notes: Yeast-purified Fab
Consider B9, for which the Kd in test [2] was 44 nM. In addition, the dissociation rate constant (koff) in test [3] came to 0.0127 s⁻¹.

B10: affinity matured h34D10 Fab VH104/VL0 (Fab, V domains shown)
VH: B2 VH with G102S, Q110R
VL: B2 VL
notes: Yeast-purified Fab
As to B10, the Kd in test [2] was determined as 31 nM. Besides, the koff in test [3] amounted to 0.0113 s⁻¹.

B11: affinity matured h34D10 Fab VH113/VL0 (Fab, V domains shown)
VH: B2 VH with S50G
VL: B2 VL
notes: Yeast-purified Fab
As to B11, in test [2], the Kd worked out at 160 nM. Besides, the off-rate (koff) in test [3] was determined as 0.0372 s⁻¹.

B12: affinity matured h34D10 Fab VH108/VL0 (Fab, V domains shown)
VH: B2 VH with G54D, K75R, G102S
VL: B2 VL
notes: Yeast-purified Fab
For B12, the Kd in test [2] turned out to be 49 nM. Further, the koff in test [3] turned out to be 0.0193 s⁻¹.

B13: affinity matured h34D10 Fab VH118/VL0 (Fab, V domains shown)
VH: B2 VH with E1G, T112A
VL: B2 VL
notes: Yeast-purified Fab
As for B13, the Kd in test [2] came to 200 nM. Also, the off-rate (koff) in test [3] stood at 0.0478 s⁻¹.

B14: affinity matured h34D10 Fab VH120/VL0 (Fab, V domains shown)
VH: B2 VH with K13E
VL: B2 VL
notes: Yeast-purified Fab
For the molecule B14, the Kd in test [2] is 240 nM. Further, in test [3], the off-rate (koff) came out at 0.0492 s⁻¹.

B15: affinity matured h34D10 Fab VH117/VL0 (Fab, V domains shown)
VH: B2 VH with V2A
VL: B2 VL
notes: Yeast-purified Fab
For the molecule B15, the Kd in test [2] is 160 nM. In addition, in test [3], the dissociation rate constant (koff) turned out to be 0.0435 s⁻¹.

B16: affinity matured h34D10 Fab VH121/VL0 (Fab, V domains shown)
VH: B2 VH with K43E
VL: B2 VL
notes: Yeast-purified Fab
With B16, in test [2], the Kd was 230 nM. The dissociation rate constant (koff) in test [3] is 0.0494 s⁻¹.

B17: affinity matured h34D10 Fab VH109/VL0 (Fab, V domains shown)
VH: B2 VH with Y58D
VL: B2 VL
notes: Yeast-purified Fab
With B17, in test [2], the Kd was determined as 120 nM. The koff in test [3] worked out at 0.031 s⁻¹.

B18: affinity matured h34D10 Fab VH101/VL0 (Fab, V domains shown)
VH: B2 VH with K64E, G102S
VL: B2 VL
notes: Yeast-purified Fab
Regarding B18, the Kd in test [2] worked out at 25 nM. For the same molecule, the dissociation rate constant (koff) in test [3] is 0.00836 s⁻¹.

B19: affinity matured h34D10 Fab VH119/VL0 (Fab, V domains shown)
VH: B2 VH with E1G
VL: B2 VL
notes: Yeast-purified Fab
On to B19, for which, in test [2], the Kd was 140 nM. The off-rate (koff) in test [3] was 0.0482 s⁻¹.

B20: affinity matured h34D10 Fab VH103/VL0 (Fab, V domains shown)
VH: B2 VH with M82V, G102S
VL: B2 VL
notes: Yeast-purified Fab
For B20, in test [2], the Kd turned out to be 37 nM. Also, the koff in test [3] worked out at 0.0103 s⁻¹.

B21: affinity matured h34D10 Fab VH116/VL0 (Fab, V domains shown)
VH: B2 VH with N73D
VL: B2 VL
notes: Yeast-purified Fab
Turning to B21, the Kd in test [2] came to 130 nM. Further, in test [3], the koff turned out to be 0.0432 s⁻¹.

B22: affinity matured h34D10 Fab VH115/VL0 (Fab, V domains shown)
VH: B2 VH with E1G, N73D
VL: B2 VL
notes: Yeast-purified Fab
Consider B22, for which, in test [2], the Kd was 120 nM. In addition, the koff in test [3] stood at 0.0429 s⁻¹.

B23: humanized 34D10 Fab L0/H5 (Fab, V domains shown)
VH: B2 VH with Q3K, V46E, Q66R, K75R
VL: B2 VL
notes: Fab; also called VL0/VH5
As for B23, the Kd in test [1] turned out to be 5.3 nM.

B24: affinity matured h34D10 Fab VH107/VL0 (Fab, V domains shown)
VH: B2 VH with G16E, K43E, G102S
VL: B2 VL
notes: Yeast-purified Fab
As to B24, in test [2], the Kd worked out at 48 nM. Further, the dissociation rate constant (koff) in test [3] amounted to 0.0142 s⁻¹.

B25: affinity matured h34D10 Fab VH111/VL0 (Fab, V domains shown)
VH: B2 VH with S30N, K43E
VL: B2 VL
notes: Yeast-purified Fab
B25: the Kd in test [2] is 150 nM. In addition, the dissociation rate constant (koff) in test [3] was determined as 0.0352 s⁻¹.

B26: affinity matured h34D10 Fab VH100/VL0 (Fab, V domains shown)
VH: B2 VH with S30G, G102S
VL: B2 VL
notes: Yeast-expressed, protein A purified, then made into Fab
Turning to B26, the Kd in test [2] turned out to be 29 nM. The koff in test [3] stood at 0.00822 s⁻¹.

B27: FVII-250/Fab-062 (other)
chain: ANAFLEELRPGSLERECKEEQCSFEEAREIFKDAERTKLFWISYSDGDQCASSPCQNGGSCKDQLQSYICFCLPAFEGRNCETHKDDQLICVNENGGCEQYCSDHTGTKRSCRCHEGYSLLADGVSCTPTVEYPCGKIPILEKRNASKPQGRIVGGKVCPKGECPWQVLLLVNGAQLCGGTLINTIWVVSAAHCFDKIKNWRNLIAVLGEHDLSEHDGDEQSRRVAQVIIPSTYVPGTTNHDIALLRLHQPVVLTDHVVPLCLPERTFSERTLAFVRFSLVSGWGQLLDRGATALELMVLNVPRLMTQDCLQQSRKVGDSPNITEYMFCAGYSDGSKDSCKGDSGGPHATHYRGTWYLTGIVSWGQGCATVGHFGVYTRVSQYIEWLQKLMRSEPRPGVLLRAPFPGGGGSGGGGSGGGGSGGGGSGGGGSGGGGSEIVMTQSPATLSVSPGERATLSCRASSSVNYMYWYQQKPGQAPRLLIYYTSNLAPGIPARFSGSGSGTEFTLTISSLQSEDFAVYYCQQFSSSPWTFGQGTKVEIKRTVAAPSVFIFPPSDEQLKSGTASVVCLLNNFYPREAKVQWKVDNALQSGNSQESVTEQDSKDSTYSLSSTLTLSKADYEKHKVYACEVTHQGLSSPVTKSFNRGEC
heavy: EGTSESATPESGPGSEPATSGSETPGTSESATPESGPGSEPATSGSETPGTSESATPESGPGTSTEPSEGSAPGSPAGSPTSTEEGTSESATPESGPGSEPATSGSETPGTSESATPESGPGSPAGSPTSTEEGSPAGSPTSTEEGTSTEPSEGSAPGTSESATPESGPGTSESATPESGPGTSESATPESGPGSEPATSGSETPGSEPATSGSETPGSPAGSPTSTEEGTSTEPSEGSAPGTSTEPSEGSAPGSEPATSGSETPGTSESATPESGPGTSTEPSEGSAPEVQLVESGGGLVKPGGSLRLSCAASGFTFSAYAMSWVRQAPGKGLVWVASISSGGTTYYPDSVKRQFTISRDNAKNTLYLQMNSLRAEDTAVYYCTRGGDYGYALDYWGQGTLVTVSSASTKGPSVFPLAPSSKSTSGGTAALGCLVKDYFPEPVTVSWNSGALTSGVHTFPAVLQSSGLYSLSSVVTVPSSSLGTQTYICNVNHKPSNTKVDKKVEPKSC
notes: also called Fab-250/Fab-062 (as printed once)
The molecule B27 showed a Kd in test [4] of 730 nM. For the same molecule, in test [5], the off-rate (koff) was 0.0174 s⁻¹ and the kon turned out to be 23700 M⁻¹ s⁻¹.

The values above are taken from patent publication US20170355771A1 (Biogen, published 2017).
